Experimental data reported in the supplement of paper PMC6757056.
± gives the standard deviation of the averaged measurements.

B1: library; a variant is named by its letters at N, in order (parent)
chain: GCUGUCACCGGUGCUUGGUACGUUAUAUUCAGCCGGUCUGAUGAGUCUNNNNNNAGACGAAACAGC

Assays:
[1] = variants of: B1; assay: normalized RNA/DNA level without ligand (relative to sTRSVctl = 100) (log10 (% of sTRSVctl)); HEK293T overexpressing SLC46A1; higher = less ribozyme self-cleavage, higher mRNA level; conditions: without (6R,S)-folinic acid; ligand present: no
How it was run: (§1)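 Ribozyme switch library plasmids linked to reporters were introduced into HEK293T cells at 4 µg per 6-well well, with ligand, if any, added 1 h before. Total RNA was extracted with EDTA 72 h later, reverse-transcribed, amplified, barcoded and sequenced. RNA level was computed from RNA over DNA reads relative to a spiked-in non-cleaving sequence or the top sequences, then scaled and log-transformed. The top set was 25 sequences, values were ×100 and log10, and the cutoff was ≥100 DNA reads.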

[2] = variants of: B1; assay: normalized RNA/DNA level with ligand (relative to sTRSVctl = 100) (log10 (% of sTRSVctl)); HEK293T overexpressing SLC46A1; ligand concentration (+) RNA-Seq: 6 mM; higher = less ribozyme self-cleavage, higher mRNA level; conditions: with (6R,S)-folinic acid; ligand present: yes
How it was run: as §1

Variant	normalized RNA/DNA level without ligand (log10) [1]	normalized RNA/DNA level with ligand (log10) [2]
CCCCCG	2.05 ± 0.023	2 ± 0.0065
CCCCCC	2.0694 ± 0.0015	2.02 ± 0.063
CCCCCA	2.023 ± 0.004	1.99 ± 0.047
CCAUUG	1.97 ± 0.031	2.015 ± 0.0036
CCAUUU	2.012 ± 0.018	2.04 ± 0.036
CCAUUC	2.045 ± 0.02	2.03 ± 0.048
CCAUUA	1.9907 ± 0.00033	2 ± 0.023
CCACGC	2.01 ± 0.022	2.01 ± 0.025
CCACGA	2.011 ± 0.0078	2.019 ± 0.009
CCACGG	2.06 ± 0.029	2.04 ± 0.048
ACAAUU	2.018 ± 0.0076	2.044 ± 0.018
UCAUAU	1.952 ± 0.0097	1.98 ± 0.03
UCAUAG	1.829 ± 0.0068	1.984 ± 0.015
UCAUAC	2.029 ± 0.0064	1.988 ± 0.019
ACAGGC	2.03 ± 0.021	2.01 ± 0.032
ACAGGA	1.948 ± 0.011	2.03 ± 0.037
ACCCAU	2.013 ± 0.01	2.01 ± 0.036
ACCCAG	1.98 ± 0.01	2 ± 0.044
ACCCAC	2.02 ± 0.016	2 ± 0.044
ACCCAA	2.02 ± 0.024	2.018 ± 0.013
GCCAAC	2.033 ± 0.02	2.055 ± 0.011
GCCAAG	2.0227 ± 0.0017	2.04 ± 0.038
GCCAAU	2.001 ± 0.0032	2 ± 0.053

Variant	normalized RNA/DNA level without ligand (log10) [1]	normalized RNA/DNA level with ligand (log10) [2]
UCAUUU	2.021 ± 0.014	2.02 ± 0.047
UCAUUA	2.003 ± 0.014	2.04 ± 0.023
UCAUUC	2.067 ± 0.013	2.07 ± 0.021
GCCACU	2.022 ± 0.011	2.01 ± 0.029
GCCACC	2.0387 ± 0.00018	2.01 ± 0.025
GCCACG	1.99 ± 0.04	2.03 ± 0.062
GCCACA	2.036 ± 0.0076	2.026 ± 0.018
GCAUUU	2.03 ± 0.0026	2.04 ± 0.04
GCAUUC	2.03 ± 0.052	2.023 ± 0.0067
GCAUUG	1.952 ± 0.009	2.01 ± 0.011
GCACAG	1.936 ± 0.0048	2 ± 0.024
GCACAU	1.991 ± 0.0072	2.01 ± 0.025
CCAAUU	2.039 ± 0.0021	2.05 ± 0.037
GCAAUU	2.039 ± 0.01	2.04 ± 0.042
GCAAUG	1.98 ± 0.0061	2.033 ± 0.0084
GCACCU	2.028 ± 0.015	2.01 ± 0.035
GCACCA	2.04 ± 0.022	2 ± 0.039
GCACCG	2.055 ± 0.0053	2.05 ± 0.061
GCACCC	2.024 ± 0.004	2.012 ± 0.0027
ACACCU	2.0447 ± 0.0018	2.05 ± 0.048
ACACCC	2.041 ± 0.0034	1.97 ± 0.045
CCAGUU	2.019 ± 0.013	2.02 ± 0.05
CCAGUA	2.027 ± 0.0027	2.05 ± 0.044

Variant	normalized RNA/DNA level without ligand (log10) [1]	normalized RNA/DNA level with ligand (log10) [2]
CCAGUC	2.06 ± 0.0079	2.0299 ± 0.00081
UCACGC	2.036 ± 0.0036	1.97 ± 0.023
UCACGU	1.98 ± 0.036	2.01 ± 0.03
UCACGG	1.965 ± 0.019	2 ± 0.043
UCACGA	2.019 ± 0.0037	2.03 ± 0.028
UCAGUA	1.98 ± 0.021	2 ± 0.046
UCAGUU	2.008 ± 0.02	2 ± 0.049
UCAGUG	1.78 ± 0.018	1.972 ± 0.011
CCAUCC	2.094 ± 0.013	2.06 ± 0.021
CCAUCA	2.026 ± 0.0086	2.02 ± 0.05
CCAUCU	2.071 ± 0.0041	2.07 ± 0.035
CCAUCG	2.012 ± 0.01	2.017 ± 0.014
GCCCAU	2.014 ± 0.0026	2.02 ± 0.061
GCCCAG	2 ± 0.028	2 ± 0.059
GCCCAC	2.02 ± 0.011	2.01 ± 0.034
GCCCAA	2.03 ± 0.014	2.02 ± 0.042
CCAGAG	1.909 ± 0.013	2.014 ± 0.019
CCAGAA	1.982 ± 0.0051	1.98 ± 0.053
CCAGAC	1.99 ± 0.023	1.98 ± 0.051
ACAUUA	2.006 ± 0.017	2.02 ± 0.034
ACAUUG	1.94 ± 0.032	2.024 ± 0.011
ACAUUU	2 ± 0.024	2.019 ± 0.018
ACAUUC	2.072 ± 0.0067	2.027 ± 0.0058

Variant	normalized RNA/DNA level without ligand (log10) [1]	normalized RNA/DNA level with ligand (log10) [2]
ACCCCG	1.998 ± 0.0083	1.99 ± 0.073
ACCCCC	2.04 ± 0.016	2.002 ± 0.015
ACCCCA	2.02 ± 0.011	2 ± 0.05
CCAGCU	2.087 ± 0.018	2.036 ± 0.013
CCAGCA	2.01 ± 0.031	1.985 ± 0.0059
CCAGCG	1.97 ± 0.025	1.99 ± 0.027
UCAAUU	2.013 ± 0.011	2.02 ± 0.014
CCACUA	2.018 ± 0.0041	2.02 ± 0.015
CCACUG	2.02 ± 0.041	2.074 ± 0.018
CCACUC	1.9795 ± 0.0011	2.008 ± 0.02
UCCAAC	2.067 ± 0.0087	2.06 ± 0.03
UCCAAA	1.982 ± 0.0034	1.986 ± 0.015
UCCAAU	1.953 ± 0.0052	1.96 ± 0.028
GCAGUC	2.046 ± 0.0028	2.05 ± 0.048
GCAGUG	1.9 ± 0.021	2.02 ± 0.038
GCAGUU	2.03 ± 0.0047	2.04 ± 0.053
UCCAGC	2.035 ± 0.016	2.03 ± 0.022
UCCAGU	1.94 ± 0.029	1.99 ± 0.029
ACAUAG	1.935 ± 0.013	2.02 ± 0.021
ACAUAU	1.94 ± 0.037	2.01 ± 0.022
ACCAAC	2.025 ± 0.012	2.02 ± 0.029
ACCAAU	1.955 ± 0.01	2.012 ± 0.0037
ACCAAG	2.0073 ± 0.00077	2.009 ± 0.014

Variant	normalized RNA/DNA level without ligand (log10) [1]	normalized RNA/DNA level with ligand (log10) [2]
ACAGUC	2.0723 ± 0.0011	2.054 ± 0.0027
ACAGUU	2 ± 0.012	2.01 ± 0.046
ACAGUA	1.947 ± 0.0079	1.99 ± 0.043
UCAUCA	2.05 ± 0.039	2.03 ± 0.044
UCAUCC	2.07 ± 0.051	2.05 ± 0.041
UCAUCG	1.997 ± 0.0043	2.01 ± 0.04
UCAUCU	2.064 ± 0.0079	2.055 ± 0.0055
CCCAAC	2.042 ± 0.017	2.019 ± 0.017
CCCAAG	1.935 ± 0.014	1.99 ± 0.031
CCCAAU	2.023 ± 0.015	2.03 ± 0.028
CCCAAA	2.02 ± 0.025	2.026 ± 0.0099
GCAGAC	1.98 ± 0.037	2.02 ± 0.022
GCAGAA	1.942 ± 0.0071	2.01 ± 0.044
GCAGAG	1.808 ± 0.01	2 ± 0.074
CCACAG	1.95 ± 0.026	2 ± 0.024
CCACAU	1.961 ± 0.004	1.98 ± 0.072
CCACAC	1.99 ± 0.02	1.967 ± 0.0084
UCCAUU	2.033 ± 0.011	2.006 ± 0.006
UCCAUA	1.972 ± 0.0018	1.98 ± 0.042
UCCAUC	2.036 ± 0.018	2.01 ± 0.051
UCCAUG	1.857 ± 0.005	1.97 ± 0.053
GCAUGG	1.944 ± 0.0075	2.04 ± 0.028
GCAUGC	2.025 ± 0.0027	1.999 ± 0.0055
